Columns and labels:
[1] = target: SIRT1 (183–510+GS+641–665) (human) (UniProt Q96EB6); experiment: ITC; Ac-p53 peptide (500 μM) titrated into 10 μM SIRT1 (183–510+GS+641–665) in the presence of 0.2 mM resveratrol; 25 °C; 20 mM HEPES pH 7.4, 150 mM NaCl, 0.5% ethanol; one-site model
[2] = target: SIRT1 (183–510+GS+641–665) (human) (UniProt Q96EB6); experiment: ITC; Ac-p53 peptide (500 μM) titrated into 10 μM SIRT1 (183–510+GS+641–665) in the presence of 0.2 mM KPMF-8; 25 °C; 20 mM HEPES pH 7.4, 150 mM NaCl, 0.5% ethanol; one-site model
[3] = target: SIRT1 (183–510+GS+641–665) (human) (UniProt Q96EB6); experiment: ITC; Ac-p53 peptide (500 μM) titrated into 10 μM SIRT1 (183–510+GS+641–665), no activator; 25 °C; 20 mM HEPES pH 7.4, 150 mM NaCl, 0.5% ethanol; one-site model

Chain of UniProt Q96EB6 (Q96EB6 other isoform, or with tags, fused parts or gaps): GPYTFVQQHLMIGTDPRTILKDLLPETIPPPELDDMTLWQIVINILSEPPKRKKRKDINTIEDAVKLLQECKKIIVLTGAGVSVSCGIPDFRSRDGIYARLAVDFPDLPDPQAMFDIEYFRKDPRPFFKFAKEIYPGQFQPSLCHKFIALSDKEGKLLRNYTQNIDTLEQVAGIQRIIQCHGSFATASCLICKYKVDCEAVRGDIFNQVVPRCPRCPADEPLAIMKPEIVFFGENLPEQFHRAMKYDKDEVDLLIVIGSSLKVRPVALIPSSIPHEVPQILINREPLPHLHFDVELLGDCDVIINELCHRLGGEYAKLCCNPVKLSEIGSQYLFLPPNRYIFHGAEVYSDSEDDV

- Kd [1]: 38.8 µM
- Kd [2]: 6.67 µM
- Kd [3]: 55 µM
Substance: native Ac-p53 peptide

Source: PMC7896056
